Measured values reported in article PMC5454376, “Molecular mechanism of Gαi activation by non-GPCR proteins with a Gα-Binding and Activating motif” (Nature Communications, 2017).

B1: Human His-Gαi3 WT [human] / Fluorescein-labelled GIV peptide (residues 1,671–1,701) [modified: 5,6-carboxyfluorescein coupled to the resin-bound peptide after chain elongation; 5,6-carboxyfluorescein coupled to the resin-bound … (parent)
chain 1: MGCTLSAEDKAAVERSKMIDRNLREDGEKAAKEVKLLLLGAGESGKSTIVKQMKIIHEDGYSEDECKQYKVVVYSNTIQSIIAIIRAMGRLKIDFGEAARADDARQLFVLAGSAEEGVMTPELAGVIKRLWRDGGVQACFSRSREYQLNDSASYYLNDLDRISQSNYIPTQQDVLRTRVKTTGIVETHFTFKDLYFKMFDVGGQRSERKKWIHCFEGVTAIIFCVALSDYDLVLAEDEEMNRMHESMKLFDSICNNKWFTETSIILFLNKKDLFEEKIKRSPLTICYPEYTGSNTYEEAAAYIQCQFEDLNRRKDTKEIYTHFTCATDTKNVQFVFDAVTDVIIKNNLKECGLY
chain 2: KTGSPGSEVVTLQQFLEESNKLTSVQIKSSS

Variants of: B1
Assay: fluorescence polarisation
Details: with Fluorescein-labelled GIV peptide (residues 1,671–1,701) [modified: 5,6-carboxyfluorescein coupled to the resin-bound peptide after chain elongation

Variant: chain 1 MGCTLSAEDKAAVERSKMIDRNLREDGEKAAKEVKLLLLGAGESGKSTIVKQMKIIHEDGYSEDECKQYKVVVYSNTIQSIIAIIRAMGRLKIDFGEAARADDARQLFVLAGSAEEGVMTPELAGVIKRLWRDGGVQACFSRSREYQLNDSASYYLNDLDRISQSNYIPTQQDVLRTRVKTTGIVETHFTFKDLYFKMFDVGGQRSERKKWIHCFEGVTAIIFCVALSDYDLVLAEDEEMNRMHESMKLFDSICNEKWFTETSIILFLNKKDLFEEKIKRSPLTICYPEYTGSNTYEEAAAYIQCQFEDLNRRKDTKEIYTHFTCATDTKNVQFVFDAVTDVIIKNNLKECGLY [chain 1 N256E]
- Kd: > 20 µM
- ratio to parent: > 40

Variant: chain 1 MGCTLSAEDKAAVERSKMIDRNLREDGEKAAKEVKLLLLGAGESGKSTIVKQMKIIHEDGYSEDECKQYKVVVYSNTIQSIIAIIRAMGRLKIDFGEAARADDARQLFVLAGSAEEGVMTPELAGVIKRLWRDGGVQACFSRSREYQLNDSASYYLNDLDRISQSNYIPTQQDVLRTRVKTTGIVETHFTFKDLYFKMFDVGGQRSERKKWIHCAEGVTAIIFCVALSDYDLVLAEDEEMNRMHESMKLFDSICNNKWFTETSIILFLNKKDLFEEKIKRSPLTICYPEYTGSNTYEEAAAYIQCQFEDLNRRKDTKEIYTHFTCATDTKNVQFVFDAVTDVIIKNNLKECGLY [chain 1 F215A]
- Kd: > 10 µM
- ratio to parent: > 20

Variant: chain 1 MGCTLSAEDKAAVERSKMIDRNLREDGEKAAKEVKLLLLGAGESGKSTIVKQMKIIHEDGYSEDECKQYKVVVYSNTIQSIIAIIRAMGRLKIDFGEAARADDARQLFVLAGSAEEGVMTPELAGVIKRLWRDGGVQACFSRSREYQLNDSASYYLNDLDRISQSNYIPTQQDVLRTRVKTTGIVETHFTFKDLYFKMFDVGGQRSERKKAIHCFEGVTAIIFCVALSDYDLVLAEDEEMNRMHESMKLFDSICNNKWFTETSIILFLNKKDLFEEKIKRSPLTICYPEYTGSNTYEEAAAYIQCQFEDLNRRKDTKEIYTHFTCATDTKNVQFVFDAVTDVIIKNNLKECGLY [chain 1 W211A]
- Kd: > 20 µM
- ratio to parent: > 40

Variant: chain 1 MGCTLSAEDKAAVERSKMIDRNLREDGEKAAKEVKLLLLGAGESGKSTIVKQMKIIHEDGYSEDECKQYKVVVYSNTIQSIIAIIRAMGRLKIDFGEAARADDARQLFVLAGSAEEGVMTPELAGVIKRLWRDGGVQACFSRSREYQLNDSASYYLNDLDRISQSNYIPTQQDVLRTRVKTTGIVETHFTFKDLYFKMFDVGGQRSERKKWIHCFEGVTAIIFCVALSDYDLVLAEDEEMNRMHESMKLFDSICNNKWATETSIILFLNKKDLFEEKIKRSPLTICYPEYTGSNTYEEAAAYIQCQFEDLNRRKDTKEIYTHFTCATDTKNVQFVFDAVTDVIIKNNLKECGLY [chain 1 F259A]
- ratio to parent: 2.57

Variant: chain 1 MGCTLSAEDKAAVERSKMIDRNLREDGEKAAKEVALLLLGAGESGKSTIVKQMKIIHEDGYSEDECKQYKVVVYSNTIQSIIAIIRAMGRLKIDFGEAARADDARQLFVLAGSAEEGVMTPELAGVIKRLWRDGGVQACFSRSREYQLNDSASYYLNDLDRISQSNYIPTQQDVLRTRVKTTGIVETHFTFKDLYFKMFDVGGQRSERKKWIHCFEGVTAIIFCVALSDYDLVLAEDEEMNRMHESMKLFDSICNNKWFTETSIILFLNKKDLFEEKIKRSPLTICYPEYTGSNTYEEAAAYIQCQFEDLNRRKDTKEIYTHFTCATDTKNVQFVFDAVTDVIIKNNLKECGLY [chain 1 K35A]
- Kd: > 10 µM
- ratio to parent: > 20

Variant: chain 1 MGCTLSAEDKAAVERSKMIDRNLREDGEKAAKEVKLLLLGARESGKSTIVKQMKIIHEDGYSEDECKQYKVVVYSNTIQSIIAIIRAMGRLKIDFGEAARADDARQLFVLAGSAEEGVMTPELAGVIKRLWRDGGVQACFSRSREYQLNDSASYYLNDLDRISQSNYIPTQQDVLRTRVKTTGIVETHFTFKDLYFKMFDVGGQRSERKKWIHCFEGVTAIIFCVALSDYDLVLAEDEEMNRMHESMKLFDSICNNKWFTETSIILFLNKKDLFEEKIKRSPLTICYPEYTGSNTYEEAAAYIQCQFEDLNRRKDTKEIYTHFTCATDTKNVQFVFDAVTDVIIKNNLKECGLY [chain 1 G42R]
- Kd: 0.377 µM
- ratio to parent: 0.649

Variant: chain 1 MGCTLSAEDKAAVERSKMIDRNLREDGEKAAKEVKLLLLGAGESGKSTIVKQMKIIHEDGYSEDECKQYKVVVYSNTIQSIIAIIRAMGRLKIDFGEAARADDARQLFVLAGSAEEGVMTPELAGVIKRLWRDGGVQACFSRSREYQLNDSASYYLNDLDRISQSNYIPTQQDVLRTRVKTTGIVETHFTFKDLYFKMFDVGGQRSERKKWIHCFEGVTAIIFCVALSDYDLVLAEDEEMNRMHESMKLFDSICNNAWFTETSIILFLNKKDLFEEKIKRSPLTICYPEYTGSNTYEEAAAYIQCQFEDLNRRKDTKEIYTHFTCATDTKNVQFVFDAVTDVIIKNNLKECGLY [chain 1 K257A]
- ratio to parent: 1.77

Variant: chain 1 MGCTLSAEDKAAVERSKMIDRNLREDGEKAAKEVKLLLLGAGESGKSTIVKQMKIIHEDGYSEDECKQYKVVVYSNTIQSIIAIIRAMGRLKIDFGEAARADDARQLFVLAGSAEEGVMTPELAGVIKRLWRDGGVQACFSRSREYQLNDSASYYLNDLDRISQSNYIPTQQDVLRTRVKTTGAVETHFTFKDLYFKMFDVGGQRSERKKWIHCFEGVTAIIFCVALSDYDLVLAEDEEMNRMHESMKLFDSICNNKWFTETSIILFLNKKDLFEEKIKRSPLTICYPEYTGSNTYEEAAAYIQCQFEDLNRRKDTKEIYTHFTCATDTKNVQFVFDAVTDVIIKNNLKECGLY [chain 1 I184A]
- ratio to parent: 3.28
